Consider two compounds from publication PMC7904663 (Nature chemical biology, 2021).

Assay [1] concerns the target Nicotine oxidoreductase (NicA2) (Pseudomonas putida S16) (UniProt F8G0P2). The assay is described as follows: stopped-flow absorbance spectrophotometry.
The target in the next assay is T1, NicA2 (Pseudomonas putida, UniProt F8G0P2).
T1 sequence (F8G0P2 1-482): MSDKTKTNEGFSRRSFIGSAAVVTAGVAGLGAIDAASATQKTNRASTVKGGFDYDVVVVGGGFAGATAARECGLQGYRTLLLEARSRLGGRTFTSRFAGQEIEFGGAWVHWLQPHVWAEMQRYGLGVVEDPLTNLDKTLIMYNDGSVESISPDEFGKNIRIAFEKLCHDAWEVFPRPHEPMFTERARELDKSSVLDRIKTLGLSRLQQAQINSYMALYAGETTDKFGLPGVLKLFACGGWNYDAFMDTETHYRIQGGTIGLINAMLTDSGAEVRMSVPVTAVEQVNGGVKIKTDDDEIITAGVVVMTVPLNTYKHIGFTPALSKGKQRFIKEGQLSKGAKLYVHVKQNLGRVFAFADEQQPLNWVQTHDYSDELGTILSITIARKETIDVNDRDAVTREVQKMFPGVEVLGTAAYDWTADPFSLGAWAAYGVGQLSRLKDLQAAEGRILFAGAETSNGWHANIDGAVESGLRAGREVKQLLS
The assay is described as follows: biochemical.

For orientation: Kd means the free concentration of one partner at which half of the binding sites on the other are occupied at equilibrium, for simple one-to-one binding. Lower therefore signals higher affinity.

For “CycN (cytochrome c of Pseudomonas putida S16) (natural protein)”, in assay [1], the bimolecular rate constant (kon), first phase, N-methylmyosmine-bound NicA2 worked out at 140000 M⁻¹ s⁻¹; the bimolecular rate constant (kon), second phase, N-methylmyosmine-bound NicA2 was determined as 77000 M⁻¹ s⁻¹; the kon, first phase (CycNox with NicA2-Flred) was 1e+06 M⁻¹ s⁻¹.

Regarding `c1cncc(C2=NCCC2)c1` [myosmine], the affinity on NicA2, expressed as Kd, was 268 ± 3 µM.
